Target: T1, human MELK protein (Maternal Embryonic Leucine zipper Kinase), full-length (human, UniProt Q14680 1-651)
T1 construct: It was detected in formalin-fixed paraffin sections (IHC) or in RIPA lysates after SDS-PAGE (western blot); MELK is an intracellular kinase, so 'on cells' here means in cells or sections; also called full-length MELK protein; endogenous MELK protein
Test: immunohistochemical staining of formalin-fixed paraffin sections, MELK/293T vs Mock/293T
Procedure: For antigen activation, sections immersed in the antigen-activating solution, pH 9 (Nichirei Biosciences Inc.) were incubated at 125° C. for 30 seconds. After incubation, these were left to stand for 20 minutes at room temperature, and washed for 5 minutes under running water. After immersing them in 3.0% hydrogen peroxide water for 10 minutes to perform blocking of endogenous peroxidase, they were washed with Wash Buffer (TBS-T (Takara Bio)) three times for 5 minutes. Furthermore, with the aim of blocking non-specific reactions, a suitable amount of Protein Block Solution (Dako) was dropped onto the sections and then left to stand for 10 minutes. The primary antibodies (OTSMAb01, MELK(N449)pAb, MELK(HPA017214)pAb) were respectively dropped in suitable amounts within a humid box, left to stand for 60 minutes, and then washed with the Wash Buffer three times for 5 minutes. Histofine Simple Stain MAX PO (Nichirei Biosciences Inc.) was dropped in suitable amounts as the secondary antibody in a humid box, and left to stand for 30 minutes. These were then washed with the Wash Buffer three times for 5 minutes. The chromogenic reaction was done using the DAB substrate solution (Nichirei Biosciences Inc.). The slide sections were immersed for 20 seconds in haematoxylin (Dako), and washed under running water. […]

T1 sequence (Q14680 whole entry): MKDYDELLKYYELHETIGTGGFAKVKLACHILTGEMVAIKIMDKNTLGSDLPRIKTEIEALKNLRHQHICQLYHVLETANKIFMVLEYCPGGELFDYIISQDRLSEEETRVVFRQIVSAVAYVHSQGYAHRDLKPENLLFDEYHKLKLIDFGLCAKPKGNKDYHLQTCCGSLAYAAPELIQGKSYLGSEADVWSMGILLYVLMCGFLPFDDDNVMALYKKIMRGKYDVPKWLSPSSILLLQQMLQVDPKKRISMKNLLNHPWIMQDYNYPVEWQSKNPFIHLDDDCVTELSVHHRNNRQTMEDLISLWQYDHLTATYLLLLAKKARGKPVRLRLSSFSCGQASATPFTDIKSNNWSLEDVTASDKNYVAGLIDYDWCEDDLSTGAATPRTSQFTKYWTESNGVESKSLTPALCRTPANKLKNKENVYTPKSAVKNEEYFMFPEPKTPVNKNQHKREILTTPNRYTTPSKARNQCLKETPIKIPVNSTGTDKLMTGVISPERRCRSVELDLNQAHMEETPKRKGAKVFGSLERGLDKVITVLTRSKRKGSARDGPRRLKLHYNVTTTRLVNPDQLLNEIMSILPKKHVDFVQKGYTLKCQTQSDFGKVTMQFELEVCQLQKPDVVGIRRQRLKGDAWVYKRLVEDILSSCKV

B1: anti-MELK mouse monoclonal antibody clone OTSMAb01 (antibody, V domains shown)
VH: EVQLQQSGAELVRPGALVKLSCKASGFNIKDYYMHWVKQRPEQGLEWIGWIDPENGNTIYDPKFQGKASVTADTSSNTAYLQLSSLTSEDTAVYYCTSHHYSAMDYWGQGTSVTVSS
VL: DVVMTQTPLSLPVSLRDQASISCRSSQSLVHSNGNTYLHWYLQKPGQSPKLLIYKVSNRFSGVPDRFSGSGSGTDFTLIISRVEAEDLGVYFCSQSTYVPLTFGAGTKLELKR
notes: Mouse monoclonal antibody from a hybridoma (Balb/c splenocytes x SP2/0), purified from culture solution on a Protein A column; also called anti-MELK antibody (OTSMAb01); hybridoma clone OTSMAb01
  binding result: binds

Source: patent publication US20190185575A1 (ONCOTHERAPY SCIENCE, published 2019)
